B1: 874F7 (antibody, V domains shown)
VH: QVQLKESGPGLVAPSHSLSITCNVSGFSLSKYGVHWIRQIPGRGLDWLGVLRAGGSTGYNSALMSRLSISKDSSKSQVFLKMNDLRTDDTAVYFCVRDHYYYSSYGGFVYWGQGTLVTVSA
VL: DIQMTQSPASQSASLGESVTITCLASQTIGAWLAWYRQQPGKSPQLLIYAATRLADGVPSRFSGSGSGTEFSFKINNLQAEDFVSYYCQQLDSSPYTFGGGTRLEM
notes: Murine hybridoma antibody purified on Protein G; also called murine antibody 874F7
B2: 874F7-Hu1 (antibody, human IgG4 S228P, kappa)
heavy: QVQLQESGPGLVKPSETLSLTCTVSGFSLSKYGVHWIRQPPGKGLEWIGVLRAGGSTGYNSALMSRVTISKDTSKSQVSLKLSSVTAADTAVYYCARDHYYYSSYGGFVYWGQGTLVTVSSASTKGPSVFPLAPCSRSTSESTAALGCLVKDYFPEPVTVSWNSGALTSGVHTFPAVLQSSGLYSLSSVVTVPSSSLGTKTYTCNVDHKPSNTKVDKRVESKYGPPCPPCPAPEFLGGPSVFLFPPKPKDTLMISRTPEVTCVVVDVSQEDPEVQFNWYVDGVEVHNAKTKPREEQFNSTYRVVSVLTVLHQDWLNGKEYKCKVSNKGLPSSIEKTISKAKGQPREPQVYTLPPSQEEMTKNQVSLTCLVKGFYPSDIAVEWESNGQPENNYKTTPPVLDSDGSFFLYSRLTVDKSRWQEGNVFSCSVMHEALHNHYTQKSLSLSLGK
light: DIQMTQSPSSVSASVGDRVTITCLASQTIGAWLAWYQQKPGKSPKLLIYAATRLADGVPSRFSGSGSGTDFTLTISSLQPEDFATYYCQQLDSSPYTFGQGTKVEIKRTVAAPSVFIFPPSDEQLKSGTASVVCLLNNFYPREAKVQWKVDNALQSGNSQESVTEQDSKDSTYSLSSTLTLSKADYEKHKVYACEVTHQGLSSPVTKSFNRGEC
notes: also called 874F7-Hul; humanized antibody 874F7-Hu1

Legend:
Pep3 = target: T1, Pep3 (human, N-terminal biotin); assay: ELISA, biotinylated peptide on streptavidin plate, antibody 10 µg/mL, well 1
T1 construct: Synthetic 20-mer of human IL-33
T1 peptide: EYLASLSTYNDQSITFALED
Description: (§1) To determine the binding activity of antibody to each polypeptide fragment, the ELISA plate was pre-coated by biotin-avidin (SA) which was diluted in coating solution (50 mM carbonate coating buffer, pH 9.6) to 2 μg/ml at 4° C. overnight. The plate was washed with PBST for 3 times, and then blocked with 2% BSA prepared in PBS at room temperature for 2 h with 200 μL/well. The plate was washed once with PBST, and 864F3 and 874F7 with final concentrations of 10 μg/mL were added at 100 μL/well, respectively, and the plate was incubated at room temperature for 1 h. The plate was washed with PBST for 3 times, and the goat anti-mouse IgG labeled by HRP was added and placed at 37° C. for 30 min. After washing the plate with PBST for 3 times, the plate was patted on the absorbent paper to remove residual droplets as far as possible. 100 μl TMB developing solution was added to each well, and the plate was placed at room temperature (20±5° C.) for 5 minutes away from light; 50 μl 2M H₂SO₄ terminating solution was added to each well to terminate the substrate reaction. OD values were read at 450 nm on the microplate reader to analyze the binding ability of the antibody to each polypeptide fragment. The experimental results are shown in […]

Pep12 = target: T2, Pep12 (human, N-terminal biotin); assay: as above
T2 construct: Synthetic 20-mer of human IL-33
T2 peptide: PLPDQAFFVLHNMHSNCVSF
Description: as §1

Pep5 = target: T3, Pep5 (human, N-terminal biotin); assay: as above
T3 construct: Synthetic 20-mer of human IL-33
T3 peptide: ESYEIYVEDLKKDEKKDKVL
Description: as §1

Pep2 = target: T4, Pep2 (human, N-terminal biotin); assay: as above
T4 construct: Synthetic 20-mer of human IL-33
T4 peptide: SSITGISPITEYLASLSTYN
Description: as §1

Pep1 = target: T5, Pep1 (human, N-terminal biotin); assay: as above
T5 construct: Synthetic 20-mer of human IL-33
T5 peptide: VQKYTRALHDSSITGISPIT
Description: as §1

[1] = target: T6, IL-33 mutant protein K46A (human, UniProt O95760 112-270); assay: ELISA as Example 9; row K46A against WT-1
T6 construct: Prokaryotic expression
T6 chain: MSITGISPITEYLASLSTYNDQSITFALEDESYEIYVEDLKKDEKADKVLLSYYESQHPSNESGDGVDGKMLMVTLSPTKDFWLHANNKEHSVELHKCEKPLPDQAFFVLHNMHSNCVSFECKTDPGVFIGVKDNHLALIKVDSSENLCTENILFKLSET
Description: (§2) SA protein was diluted to 2 μg/mL to coat ELISA plate at 100 μL/well overnight at 4° C. The plate was washed with PBST (PBS containing 0.05% Tween20) for 3 times, and blocked with 2% BSA prepared in PBS at 200 μL/well, at room temperature for 2 h. After the plate was washed twice with PBST, IL-33-his-biotin protein was diluted to 1 μg/mL with 1% BSA prepared in PBST, and was added to ELISA plate at 100 μL/well. The plate was incubated at room temperature for 1 h, and each monoclonal antibody was diluted with 1% BSA prepared in PBST in a 3-fold gradient. The highest concentration of antibody was 10 μg/mL, and the antibody was diluted for 12 gradients. Each diluted monoclonal antibody was added to ELISA wells with 100 μL/well, and the plate was incubated at room temperature for 1 h. Each sample was added to duplicate wells in parallel. The plate was washed with PBST for 3 times, and HRP-anti human IgG Fc secondary antibody prepared with PBST was diluted at an appropriate ratio, and was added to ELISA wells at 100 μL/well. […] Each reaction solution was shaken uniformly and OD450 nm was read on a microplate reader. The data was analyzed and EC₅₀ was calculated.
(§3) Subsequently, according to the experimental method of Example 9, the affinity of the above mutant proteins to 874F7-Hu1 was determined, and IL-33 proteins (WT-1, WT-2, WT-3, and WT-4) without any mutation were set as controls.

[2] = target: T7, IL-33 mutant protein D65A (human, UniProt O95760 112-270); assay: ELISA by the method of Example 9 with the IL-33 mutant protein on the plate, 874F7-Hu1 in serial dilution, HRP anti-human IgG Fc, absorbance 450 nm
T7 construct: Prokaryotic expression
T7 chain: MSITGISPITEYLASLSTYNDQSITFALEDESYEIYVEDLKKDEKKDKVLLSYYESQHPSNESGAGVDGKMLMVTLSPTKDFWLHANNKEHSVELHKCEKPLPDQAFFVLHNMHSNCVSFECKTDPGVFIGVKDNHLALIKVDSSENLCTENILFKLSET

[3] = target: T8, IL-33 mutant protein E55A (human, UniProt O95760 112-270); assay: ELISA as Example 9; row E55A
T8 construct: Prokaryotic expression
T8 chain: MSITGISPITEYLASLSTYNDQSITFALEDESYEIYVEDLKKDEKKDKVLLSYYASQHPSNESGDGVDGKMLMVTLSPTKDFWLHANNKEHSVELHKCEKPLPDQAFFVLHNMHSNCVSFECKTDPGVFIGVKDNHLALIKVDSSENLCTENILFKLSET
Description: as §2, §3

[4] = target: T9, IL-33 mutant protein L51A (human, UniProt O95760 112-270); assay: ELISA as Example 9; row L51A
T9 construct: Prokaryotic expression
T9 chain: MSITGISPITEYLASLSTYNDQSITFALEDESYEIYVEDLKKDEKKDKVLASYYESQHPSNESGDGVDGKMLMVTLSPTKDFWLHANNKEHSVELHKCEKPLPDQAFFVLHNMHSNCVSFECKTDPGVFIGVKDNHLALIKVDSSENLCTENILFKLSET
Description: as §2, §3

OD450 (Pep3) [OD450] | OD450 (Pep12) [OD450] | OD450 (Pep5) [OD450] | OD450 (Pep2) [OD450] | OD450 (Pep1) [OD450] | Affinity decline ratio [1] [fold] | EC50 (read off the curve) [2] [nM] | EC50 [3] [nM] | EC50 [4] [nM] | Binder
0.053 | 0.056 | 0.05 | 0.056 | 0.074 |  |  |  |  | B1
 |  |  |  |  | 1 | ~2 | 0.33 | 0.91 | B2
